Laboratory results: paper PMC6737914, “Dissection of GTPase-activating proteins reveals functional asymmetry in the COPI coat of budding yeast” (Journal of Cell Science, 2019)

Biological target: T1, TAP-purified coatomer (TAP-tagged β′-COP) (S. cerevisiae, UniProt P53622 1-1201; P41811 1-889; P40509 1-296; P41810 1-973; P32074 1-935; P43621 …)
T1 construct: α-COP subunit of coatomer, S. cerevisiae; β′-COP subunit of coatomer, S. cerevisiae, TAP-tagged; ε-COP subunit of coatomer, S. cerevisiae; β-COP subunit of coatomer, S. cerevisiae; γ-COP subunit of coatomer, S. cerevisiae; δ-COP subunit of coatomer, S. cerevisiae; ζ-COP subunit of coatomer, S. cerevisiae; The complex was released by TEV cleavage after the incubation with Glo3; also called …
Assay: pull-down; TAP-immobilised COPI incubated with a molar excess of MBP-Glo3 (ΔAmpH) for 20 min at 4°C, washed, eluted by TEV cleavage; Coomassie staining and western blots
Settings: both partners purified

- binding result: binds
B1: MBP-Glo3 (ΔAmpH), Glo3 (1–459) lacking its distal amphipathic helix (domain or fragment)
chain: not shown
notes: Glo3, S. cerevisiae, residues 1-459, without the distal amphipathic helix (printed as 459–493); After TEV elution of the complex the eluates were incubated with amylose resin to deplete MBP; also called Glo3 lacking a C-terminal amphipathic helix; source: E. coli Rosetta (DE3) or BL21 (pREP4), purified (Ni-IDA resin), dialysed
